Data: US20240400671A1 (published 2024)
One block for each binder: values may come before it.

What was measured:
ABM109.2 = experiment: binding affinity
ABM126 = experiment: binding affinity
ABM126.4 = experiment: binding affinity
ABM 109.2 = experiment: SPR
ABM 109 = experiment: SPR
hABM125.10 = experiment: SPR
hABM125.9 = experiment: SPR
Mouse (NSO) = experiment: binding affinity
Cyno Monkey (HEK) = experiment: binding affinity
[1] = biological target: T1, recombinant human IL-25 (R&D Systems) (human, UniProt Q9H293 33-177); experiment: binding affinity
T1 chain: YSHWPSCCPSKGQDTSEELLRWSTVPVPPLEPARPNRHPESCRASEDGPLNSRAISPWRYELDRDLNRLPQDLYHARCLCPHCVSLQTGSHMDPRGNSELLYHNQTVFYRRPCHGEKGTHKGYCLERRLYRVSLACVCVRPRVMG

mouse IL-25 (NS0) = experiment: SPR
[2] = biological target: T1, recombinant human IL-25 (R&D Systems); experiment: SPR

- Kd (ABM109.2): 1 nM
- Kd (ABM126): 0.043 nM
- Kd (ABM126.4): 0.024 nM
B1: Human (HEK) (ligand)
chain: YSHWPSCCPSKGQDTSEELLRWSTVPVPPLEPARPNRHPESCRASEDGPLNSRAISPWRYELDRDLNRLPQDLYHARCLCPHCVSLQTGSHMDPRGNSELLYHNQTVFYRRPCHGEKGTHKGYCLERRLYRVSLACVCVRPRVMG

- Kd (ABM 109.2): 0.024 nM
- Kd (ABM 109): 0.004 nM
B2: human IL-25 (ligand)
chain: YSHWPSCCPSKGQDTSEELLRWSTVPVPPLEPARPNRHPESCRASEDGPLNSRAISPWRYELDRDLNRLPQDLYHARCLCPHCVSLQTGSHMDPRGNSELLYHNQTVFYRRPCHGEKGTHKGYCLERRLYRVSLACVCVRPRVMG

- Kd (hABM125.10): 0.374 nM
- Kd (hABM125.9): 0.061 nM
B3: human IL-25 (HEK) (ligand)
chain: YSHWPSCCPSKGQDTSEELLRWSTVPVPPLEPARPNRHPESCRASEDGPLNSRAISPWRYELDRDLNRLPQDLYHARCLCPHCVSLQTGSHMDPRGNSELLYHNQTVFYRRPCHGEKGTHKGYCLERRLYRVSLACVCVRPRVMG

- Kd (Mouse (NSO)): 0.096 nM
- Kd (Cyno Monkey (HEK)): 0.235 nM
B4: ABM125.38 (antibody, V domains shown)
VH: QVTLKESGPTLVKPTQTLTLTCTFSGFSLSTSGMGVGWIRQPPGKALEWLAHIWWDDVKRYNPSLKSRLTITKDTSGSQVVLTMTNMDPVDTATYYCARTLPHFHDYWGQGTTLTVSS
VL: DIQMTQSPSTLSASVGDRVTITCRASSSVSYMYWYQQKPGKAPKPLIYRTSNLASGVPSRFSGSGSGTEYTLTISSLQPDDFATYYCKQYHSYPPTWTFGGGTKVEIKR

- Kd [1]: 0.051 nM
B5: LNR125.38 (antibody, V domains shown)
VH: QVTLKESGPTLVKPTQTLTLTCTFSGFSLSTSGMGVGWIRQPPGKALEWLAHIWWDDVKRYNPSLKSRLTITKDTSGSQVVLTMTNMDPVDTATYYCARTLPHFHDYWGQGTTLTVSS
VL: DIQMTQSPSTLSASVGDRVTITCRASSSVSYMYWYQQKPGKAPKPLIYRTSNLASGVPSRFSGSGSGTEYTLTISSLQPDDFATYYCKQYHSYPPTWTFGGGTKVEIKR

- Kd (mouse IL-25 (NS0)): 0.0073 nM
- Kd (Mouse (NSO)): 0.168 nM
- Kd (Cyno Monkey (HEK)): 0.17 nM
B6: ABM125 (antibody, V domains shown)
VH: QVTLKVSGPGILQPSQTLSLTCSFSGFSLNTSGMGVGWIRQPSGKGLEWLAHIWWDDVKRYNPALKSRLTISKDTSGSQVFLKIASVDTADTATYYCARTLPHFFDYWGQGTTLTVSS
VL: DIQMTQSPAIMSASPGEKVTISCRASSSVSYMYWYQQKSGSSPKPWIYRTSNLASGVPARFSGSGSGTSYSLTISSMEAEDAATYYCKQYHSYPPTWTFGGGTKLEIKR
modifications: N-glycosylation site in heavy chain CDR1 created by S29N, confirmed biophysically

- Kd [1]: 0.128 nM
- Kd [2]: 0.0053 nM
B7: ABM125 (Chimera) (antibody, V domains shown)
VH: QVTLKVSGPGILQPSQTLSLTCSFSGFSLNTSGMGVGWIRQPSGKGLEWLAHIWWDDVKRYNPALKSRLTISKDTSGSQVFLKIASVDTADTATYYCARTLPHFFDYWGQGTTLTVSS
VL: DIQMTQSPAIMSASPGEKVTISCRASSSVSYMYWYQQKSGSSPKPWIYRTSNLASGVPARFSGSGSGTSYSLTISSMEAEDAATYYCKQYHSYPPTWTFGGGTKLEIKR
modifications: N-glycosylation site in heavy chain CDR1 created by S29N, confirmed biophysically
